Here are results for 1 substance from patent US20090169546A1.

The target in this experiment is HMG1 purified from calf (bovine) thymus (calf (bovine)) (UniProt P10103). The experiment in a line: cell-based or functional assay.
Sequence of HMG1 purified from calf (bovine) thymus (calf (bovine)) (P10103 2-215 limits assumed): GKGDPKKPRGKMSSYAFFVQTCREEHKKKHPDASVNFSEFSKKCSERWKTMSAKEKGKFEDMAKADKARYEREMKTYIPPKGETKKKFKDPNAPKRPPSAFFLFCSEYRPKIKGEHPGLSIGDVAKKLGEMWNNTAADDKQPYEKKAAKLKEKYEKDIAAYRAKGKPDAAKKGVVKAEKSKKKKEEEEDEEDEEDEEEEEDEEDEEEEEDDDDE

Take RAGE-Fc fusion protein: the IFN-a release from mouse bone marrow cells treated with CpG-A and thymus HMG1 was over 95%.
